The target of the assay is endogenous Akt (UniProt P31749). As to the kind of experiment: cell-based or functional assay.
Sequence of endogenous Akt (P31749 whole entry): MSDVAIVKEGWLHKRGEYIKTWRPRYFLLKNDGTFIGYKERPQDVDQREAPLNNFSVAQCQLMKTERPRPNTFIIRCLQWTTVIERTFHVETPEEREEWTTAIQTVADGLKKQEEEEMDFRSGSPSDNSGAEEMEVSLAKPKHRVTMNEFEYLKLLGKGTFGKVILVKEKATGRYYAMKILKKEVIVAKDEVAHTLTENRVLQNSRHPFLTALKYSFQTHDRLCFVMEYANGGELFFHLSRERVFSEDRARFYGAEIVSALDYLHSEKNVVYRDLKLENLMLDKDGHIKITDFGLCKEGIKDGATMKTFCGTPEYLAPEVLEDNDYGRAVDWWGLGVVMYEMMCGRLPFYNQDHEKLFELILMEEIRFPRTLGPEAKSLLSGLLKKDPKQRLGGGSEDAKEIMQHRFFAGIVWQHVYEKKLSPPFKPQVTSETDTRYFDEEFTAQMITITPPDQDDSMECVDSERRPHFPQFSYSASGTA

In turn, “endogenous PHLPP2 (from UniProt Q6ZVD8 1-1323)” had an increase in Akt phosphorylation at Ser 473 on siRNA knock down of PHLPP2 in 293T cells of 2 fold.

On to “endogenous PHLPP2 (from UniProt Q6ZVD8 1-1323) (enzyme)”, for which the increase in Ser473 phosphorylation on siRNA knock down of PHLPP2 in H157 cells worked out at 4 fold.

The values are drawn from US20080108569A1, “Compositions and Methods for Treating Diseases Associated With Phlpp” (The Regents of the University of California, priority 2005, published 2008).
